Measured values as given in the supplement of paper PMC10567573.
± gives the standard deviation.

Assay: protein stability index of a GFP-peptide fusion (GPS, HEK-293T) (PSI 1-6); higher = more stable
[1] = treatment: DMSO, c terminus: a fixed tail appended
[2] = treatment: MLN4924 1 uM, 8 h, c terminus: a fixed tail appended
[3] = treatment: DMSO, c terminus: native
[4] = treatment: MLN4924 1 uM, 8 h, c terminus: native
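Also: 24-mer peptide tiles fused after GFP, lentivirally expressed, FACS-sorted into six equal bins by GFP/DsRed ratio, decoded by Illumina sequencing, PSI is the read-weighted mean bin number.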

| Sequence | protein stability index [1] | protein stability index [2] | protein stability index [3] | protein stability index [4] |
| --- | --- | --- | --- | --- |
| GKEVKVNWATTPSSQKKDTSSSTV [TIA1] | 4.76 ± 0.21 | 4.92 ± 0.36 |  |  |
| GKVLGKGGFAKCYEMTDLTNNKVY [PLK2] | 2.73 ± 0.11 | 2.87 ± 0.34 |  |  |
| GLDGYRGYSLADWVCLAYFTSGFN [SPACA3] | 3.1 ± 1.2 | 2.81 ± 0.7 |  |  |
| GLGVLRALGSRGWEPFDWGRLLEA [FANCE] | 2.88 ± 0.2 | 2.47 ± 0.042 |  |  |
| GLVPSEKPPMMPQAQPAIPRPNRL [C2CD2L] | 4.65 ± 0.21 | 4.47 ± 0.068 |  |  |
| GNFQGIRFHYDRNPGTDAVAQTSL [FATE1] | 3.38 ± 0.22 | 3.42 ± 0.16 |  |  |
| GNLGSLEKSVTKDAEGLAARDVQK [INTS4] | 5.46 ± 0.089 | 5.42 ± 0.12 |  |  |
| GNNEDVSFSRPADLDLIQSTPFKP [MFF] | 4.36 ± 0.059 | 5.06 ± 0.56 |  |  |
| GPLPPAPAMVRISKPKTFQAYLDD [YPEL3] | 3.73 ± 0.18 | 4.33 ± 0.37 |  |  |
| GPVQVVLVQKDQHSFELDEKALAS [ATL3] | 3.65 ± 0.18 | 4.06 ± 0.2 |  |  |
| GQGLKSYMTKPSKSLLPHLKTGNS [RTP4] | 3.62 ± 0.16 | 3.63 ± 0.25 |  |  |
| GRAENGERSDLEEDNEREGTENGA [ZC3H15] | 5.57 ± 0.068 | 5.57 ± 0.16 |  |  |
| GRPIPGTSTRYEQPKCDNTARAHP [SMOC2] | 4.76 ± 0.4 | 4.78 ± 0.18 |  |  |
| GRSRLYHDGKNQPGVAYPAFLGPD [SPSB4] | 3.84 ± 0.23 | 3.78 ± 0.19 |  |  |
| GSDLGGPLPTDPMLGLALGGLVVS [TSPAN10] | 2.88 ± 0.2 | 2.66 ± 0.19 |  |  |
| GSEMGLSSHLQSSKAGPTRIFTSN [KLHL13] | 3.78 ± 0.17 | 3.77 ± 0.23 |  |  |
| GSIGVWHYICPRLGGIGFSSCIVC [SLC6A17] | 2.58 ± 0.054 | 2.41 ± 1.2 |  |  |
| GSKNVFSTFRTPAVLFTGIVALYI [ATL3] | 3.11 ± 0.7 | 2.67 ± 0.57 |  |  |
| GSRAGASSFSDPFFVVETLCIIWF [KCNA3] | 3.04 ± 0.93 | 2.53 ± 0.75 |  |  |
| GSRLAEFGAAGVNRLSIGLQSLDD [RSAD1] | 4.22 ± 0.48 | 4.09 ± 0.34 |  |  |
| GTLLFYIGGHLVRDNDHPDHSSRE [FUT8] | 2.3 ± 0.59 | 2.55 ± 0.58 |  |  |
| GTLTPRMTTDFDLSLDNSPLLQSI [TRIM9] | 3.43 ± 0.28 | 3.48 ± 0.36 |  |  |

| Sequence | protein stability index [1] | protein stability index [2] | protein stability index [3] | protein stability index [4] |
| --- | --- | --- | --- | --- |
| GTYSQALNDAKRELRFLLVYLHGD [FAF2] | 2.41 ± 0.47 | 2.16 ± 0.32 |  |  |
| GVIATKQFSRGDFVVEYHGDLIEI [KMT5A] | 2.37 ± 0.31 | 1.68 ± 0.17 |  |  |
| GYLDYRKKAIKDLGISPSTCSFNP [GLT8D2] | 2.85 ± 0.22 | 2.89 ± 0.34 |  |  |
| GYLLSFHTPGGQNQEILLPGGITS [TNXB] | 2 ± 0.36 | 2 ± 0.41 |  |  |
| GYPVSSAFAFQNTFPHSISAKNTS [SASS6] | 3.19 ± 0.43 | 3.37 ± 0.21 |  |  |
| HEDLLTRIGEATKPDGTVEQIGHI [NET1] | 4.95 ± 0.13 | 4.93 ± 0.17 |  |  |
| HELTAKYLNYYQGMLDVADESLTD [P3H4] | 4.01 ± 0.3 | 3.89 ± 0.48 |  |  |
| HGLWDSLVYDVEVKSHLLDYVMTT [TRIP13] | 2.28 ± 0.32 | 2.2 ± 0.34 |  |  |
| HGPISEVLLIKDRTSKSRGFAFIT [RBMY1A1] | 2.83 ± 0.36 | 2.66 ± 0.91 |  |  |
| HILAKNYFSQVPVLASFILDDGEI [IQUB] | 2.2 ± 0.51 | 1.96 ± 0.42 |  |  |
| HKESKMTIFEKENFIGRQWEISDD [CRYBA1] | 4.13 ± 0.4 | 4.07 ± 0.3 |  |  |
| HLNAIRGLPGSFIKEVQKGGPADL [PDZK1] | 3.56 ± 0.34 | 3.99 ± 0.19 |  |  |
| HNLVVACEIQVRTLASAGGPDNLV [ADD1] | 2.51 ± 0.51 | 2.38 ± 0.52 |  |  |
| HNRYTENSLRGVILDIHFLSQADF [FUT8] | 2.55 ± 0.67 | 2.41 ± 0.43 |  |  |
| HNTTEAPGPHSAKQDSYEQGDSSQ [ZC2HC1C] | 5.45 ± 0.29 | 5.46 ± 0.32 |  |  |
| HPGFKDNVYRKRRKYFADLAMNYK [TPH1] | 2.61 ± 0.23 | 3.01 ± 0.48 |  |  |
| HRLMTDARRRVCHTEDFQKEEGTV [CPXM2] | 4.76 ± 0.26 | 4.8 ± 0.24 |  |  |
| HRRDGKWQIVHFHRSGAPSVLPH [CAMK2A] |  |  | 3.2 ± 0.21 | 3.34 ± 0.24 |
| HSDMAAIVKAMASPESGLEVRDRM [DVL3] | 3.81 ± 0.23 | 3.81 ± 0.03 |  |  |
| HSRKTVLIKTIETRNGEVVTESQK [PRPH] | 4.71 ± 0.27 | 4.8 ± 0.32 |  |  |
| HYFPVMKKCCIPETRRRMEMAFNT [NLN] | 2.35 ± 0.43 | 1.84 ± 0.27 |  |  |
| IAFDGVVGSGGRRDSTARRPRPQG [RTN2] | 4.29 ± 0.17 | 4.26 ± 0.22 |  |  |

| Sequence | protein stability index [1] | protein stability index [2] | protein stability index [3] | protein stability index [4] |
| --- | --- | --- | --- | --- |
| IALDLTPVIEELTNAGFLQTESEL [FAN1] | 2.46 ± 0.26 | 2.57 ± 0.37 |  |  |
| IDFSPYLEPLGAPQAPAPATATDT [CEBPB] | 4.42 ± 0.31 | 4.35 ± 0.37 |  |  |
| IDNSSEIEDEDQILENSSQKENVF [FAN1] | 5.39 ± 0.28 | 5.2 ± 0.56 |  |  |
| IEREVNILREIRHPNIITLHDIFE [DAPK3] | 2.69 ± 0.17 | 2.71 ± 0.42 |  |  |
| IESLNEELAYMKKNHEEEMKEFSN [KRT13] | 4.88 ± 0.38 | 5.06 ± 0.3 |  |  |
| IFEGNSEKEIPVLNELPVPMVARY [CPXM2] | 3.55 ± 0.16 | 3.37 ± 0.33 |  |  |
| IFRNLCQMQEDNSSFSLLLDLLSE [INTS3] | 2.61 ± 0.28 | 2.51 ± 0.37 |  |  |
| IGLTKAGMEGDWSWVDDTPFNKVQ [CD207] | 2.97 ± 0.37 | 3.04 ± 0.46 |  |  |
| ILLLDGAAWLTLWVFGTSFLPFLL [FADS1] | 2.91 ± 0.062 | 3.17 ± 0.46 |  |  |
| IMTQLRQEGWIHHLARHAVACFLT [CRY1] | 3.02 ± 0.38 | 2.84 ± 0.61 |  |  |
| INDNAPTFQSSVLRVGIPENAPIG [PCDHGC5] | 3.99 ± 0.066 | 4.18 ± 0.19 |  |  |
| INLPVEEFNELLSKYQLSEAQLSL [NFE2L1] | 2.47 ± 0.44 | 2.51 ± 0.21 |  |  |
| IPAVSISYVVYENLKITLGVQSR [SLC25A25] |  |  | 3.19 ± 0.32 | 3.18 ± 0.36 |
| IPVLMALSWFILHARYRVIHFIAV [SLC35F2] | 3.09 ± 0.43 | 3.25 ± 0.093 |  |  |
| IPYWVAYYLALLLSLLVMVISPVI [NSDHL] | 2.23 ± 0.31 | 2.28 ± 0.38 |  |  |
| IQHRRTHTDSKYEHAIAEAQKNMY [ZNF396] | 3.78 ± 0.27 | 3.96 ± 0.21 |  |  |
| IQMVNESLGYVRSQFLKLKTSVEK [CD207] | 3.34 ± 0.21 | 3.29 ± 0.13 |  |  |
| IRLVCSRGNRLKTTSWGLLSLGAL [SCNN1D] | 3.2 ± 0.45 | 3.07 ± 0.54 |  |  |
| ISFDRYYKIVKPLWTSFIQSVSYS [P2RY14] | 3.63 ± 0.89 | 2.08 ± 0.7 |  |  |
| ISGALLQIKTLLALSCHEQEMVVS [SLC2A12] | 2.91 ± 0.5 | 2.42 ± 0.48 |  |  |
| ISHQGDYAVLAAEPELQVGIDIMK [AASDHPPT] | 3.42 ± 0.21 | 3.52 ± 0.3 |  |  |
